Reference: paper doi:10.1101/845313
Where two headings read alike, the source gives them in different places.

Legend:
[1] = target: SusF co-expressed with SidI (Legionella pneumophila (Philadelphia-1 Lp01)); experiment: SEC
[2] = target: SusF, purified recombinant (untagged) (Legionella pneumophila (Philadelphia-1 Lp01)) (UniProt Q5ZSL2); experiment: SPR
[3] = target: SusF, purified recombinant (untagged) (Legionella pneumophila (Philadelphia-1 Lp01)) (UniProt Q5ZSL2); experiment: SPR; remark: listed apart in the source

Substance | stoichiometry N [1] | Kd [2] | koff,1 (two-state model, first step) [2] | koff,2 (two-state model, second step) [2] | kon,1 (two-state model, first step) [2] | kon,2 (two-state model, second step) [2] | Kd [3] | koff [3] | kon [3]
SidI co-expressed with SusF (natural protein) | 1 |  |  |  |  |  |  |  | 
His6-SidI (from UniProt Q5ZSL3 1-942) (natural protein) |  | 3.1 nM | 0.00051 s⁻¹ | 0.00045 s⁻¹ | 27000 M⁻¹ s⁻¹ | 0.0023 s⁻¹ | 0.89 nM | 0.00019 s⁻¹ | 220000 M⁻¹ s⁻¹
